Consider two molecules from article PMC9860250.

Read-outs that look alike come from different tables or passages of the source.

Series [1] has as its target T1, Lsm2-8 heteroheptameric ring (UniProt P38203;P57743;P40070;P40089;Q06406;P53905;P47093 …).
T1 sequence 1: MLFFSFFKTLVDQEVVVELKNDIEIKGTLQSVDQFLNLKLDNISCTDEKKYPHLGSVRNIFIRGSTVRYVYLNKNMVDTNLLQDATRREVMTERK
T1 sequence 2: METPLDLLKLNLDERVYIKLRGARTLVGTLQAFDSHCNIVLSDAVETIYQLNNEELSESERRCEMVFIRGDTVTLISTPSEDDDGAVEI
T1 sequence 3: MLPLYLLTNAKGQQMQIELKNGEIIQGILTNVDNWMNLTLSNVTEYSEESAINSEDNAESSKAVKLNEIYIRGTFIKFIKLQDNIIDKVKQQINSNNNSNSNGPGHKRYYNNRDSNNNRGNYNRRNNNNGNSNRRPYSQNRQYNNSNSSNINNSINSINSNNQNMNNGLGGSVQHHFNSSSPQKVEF
T1 sequence 4: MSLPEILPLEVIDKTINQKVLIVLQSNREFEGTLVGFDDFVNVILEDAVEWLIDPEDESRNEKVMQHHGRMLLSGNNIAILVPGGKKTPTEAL
T1 sequence 5: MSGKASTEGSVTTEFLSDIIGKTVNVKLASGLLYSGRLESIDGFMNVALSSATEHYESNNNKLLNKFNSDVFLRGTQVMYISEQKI
T1 sequence 6: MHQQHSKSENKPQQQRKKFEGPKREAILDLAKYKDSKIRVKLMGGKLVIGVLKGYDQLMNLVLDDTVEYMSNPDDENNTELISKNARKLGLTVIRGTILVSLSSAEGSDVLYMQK
T1 sequence 7: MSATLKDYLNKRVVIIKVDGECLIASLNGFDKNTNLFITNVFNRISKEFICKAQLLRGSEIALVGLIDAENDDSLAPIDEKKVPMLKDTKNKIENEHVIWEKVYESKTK
As to the kind of experiment: EMSA.

The target in series [2] is T1, Lsm2-8 heteroheptameric ring. As to the kind of experiment: EMSA. The source holds these as a separate data set.

B1: U6_WT/U2_WT helix II (dsRNA)
RNA 1: UACAAAGAGAUUUAUUUCGUUUU
RNA 2: ACGAAUCUCUUUGCCUUUUGGCUUAGAU
modifications: 3'-phosphate on U6
B1: the binding result in series [1] was “binds”.

With UACAAAGAGAUUUAUUUCGUUUU (ssRNA, 3'-phosphate) [U6_WT], the binding result in series [2] is listed as “binds”.
